US11667697 (VANDERBILT UNIVERSITY, dated 2023)

Key:
[1] = target: T1, VACV B5 protein (vaccinia virus, UniProt Q01227 20-275); test: purified antigen ELISA
[2] = target: T1, VACV B5 protein; test: cell-based or functional assay
[3] = target: T2, VACV A27 protein (vaccinia virus, UniProt P11258 1-110); test: purified antigen ELISA
T2 sequence: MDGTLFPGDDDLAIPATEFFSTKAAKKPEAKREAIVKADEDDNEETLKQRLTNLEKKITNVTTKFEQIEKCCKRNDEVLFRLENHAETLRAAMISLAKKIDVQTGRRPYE

[4] = target: T2, VACV A27 protein; test: lysate ELISA
[5] = target: T2, VACV A27 protein; test: cell-based or functional assay
[6] = target: T3, VACV D8 protein (vaccinia virus, UniProt P04195 1-261); test: lysate ELISA
T3 sequence: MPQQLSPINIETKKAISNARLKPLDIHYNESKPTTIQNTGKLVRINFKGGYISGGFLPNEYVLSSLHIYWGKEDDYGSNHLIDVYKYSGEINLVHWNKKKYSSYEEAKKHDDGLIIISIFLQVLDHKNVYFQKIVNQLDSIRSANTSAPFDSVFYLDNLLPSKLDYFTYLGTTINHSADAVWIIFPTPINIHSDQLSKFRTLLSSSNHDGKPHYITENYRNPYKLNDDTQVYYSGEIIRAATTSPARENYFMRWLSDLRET

[7] = target: T3, VACV D8 protein; test: cell-based or functional assay
[8] = target: VACV A33 protein (vaccinia virus, UniProt P68617 58-185); test: purified antigen ELISA

B1: VACV-59 (antibody, V domains shown)
VH: QVQLVQSGGGLVKPGGSLRLSCAASGFTFSDYYMSWIRQAPGKGLEWVSYISTSGSTIYYADSVKGRFTISRDNAKNSLYLQMNSLRAEDTAMYYCARDGDGSGSYTPPYYYYGLDVWGQGTTVTVSS
VL: DIQMTQSPSSLSASVGDRVTITCRASQSIRNYLNWYQQKSGKAPKLLIYAASSLQSGVPSRFSGSGSGTDFTLTISSLHPEDFATYYCQQSYSTPPLTFGGGTKVEIK
notes: human IgG2, anti-B5
EC50 [1]: 0.14 µg/mL | PRNT Emax, VACV EV+C' [2]: 72% | PRNT IC50, VACV EV+C' [2]: 0.2 µg/mL

B2: VACV-303 (antibody, V domains shown)
VH: EVQLLESGGGLVQPGGSLRLSCAASGFTFSSYAMSWVRQAPGKGLEWVSAISGTGGNTYYADSVKGRFTISRDKSKNTLYLQMHSLRAEDTAVYYCATSLIWWLQSDYWGQGTLVTVSS
VL: DIQMTQSPSSLSASVGDRVTITCRASQSIASYLIWYQQKPGNAPKLLIYAASSLQSGVPSRFSGSGSGTDFTLTISSLQPEDFATYYCQQSYSTPQTFGQGTKVDIK
notes: human IgG1, anti-A27
EC50 [3]: 0.02 µg/mL | EC50 [4]: 0.05 µg/mL

B3: VACV-302 (antibody, V domains shown)
VH: QLQLQESGPGLVKPSETLSLTCTVSGGSIISSSYYWGWIRQPPGKGLEWLGSIYYSGSTYYNPSLKSRVTISVDTSKNQFSLKVTSVTAADTAVYYCARQISKAAAGSIDYWGQGTLVTVS
VL: not shown
notes: human IgG1, anti-A27
EC50 [3]: 0.08 µg/mL | EC50 [4]: 0.01 µg/mL | PRNT Emax, VACV MV [5]: 81% | PRNT Emax, VACV MV+C' [5]: 53% | PRNT IC50, VACV MV [5]: 12.3 µg/mL | PRNT IC50, VACV MV+C' [5]: 0.1 µg/mL

B4: MPXV-30 (antibody, V domains shown)
VH: QVQLVQSGAEVKKPGSSVKVSCKVSGGTFSSLAINWVRQAPGQGLEWMGGIIPIFGKANYAQKFQGRVSIIADESTSTAYMDLSSLRFEDTAVYYCATGGNIRVHDFDIWGQGTLVIVSS
VL: not shown
notes: human IgG1, anti-D8
EC50 [6]: 0.004 µg/mL

B5: VACV-136 (antibody, V domains shown)
V domain 1: QVTLKESGPVLVNPTETLTLTCTVSGFSLSNARMRVSWIRQPPGKALEWLAHIFSNDEKSYSTSLKSRLTISKDTSKSQVVLTMTNMDPVDTASYYCARMRGEYNSYYFDSWGQGTLVTVS
V domain 2: SYELTQPPSVSVSPGQTARITCSGDALPNQYAYWYQQKPGQAPVLVIYKDSERPSGIPERFSGSSSGTTVTLTISGVQAEDEADYYCQSADSSGTSVVFGGGTQVTV
notes: human IgG1, anti-D8
EC50 [6]: 0.06 µg/mL | PRNT Emax, VACV MV+C' [7]: 84% | PRNT IC50, VACV MV+C' [7]: 0.4 µg/mL

B6: VACV-154 (antibody, V domains shown)
VH: EVQLLESGGGLVQPGESLRLSCAASGFTLRNYAMSWVRQTPGKGLEWVSAISGSGGSTYYADSVKGRFTISRDTSKNTLYVQMNSLRAEDTAVYYCAKIRLDSSGYSGAFDIWGQGTRVTVSS
VL: SYELTQPPSVSVSPGQTARITCSGDALPKQYASWYQQKPGQAPVLVIYKDSERPSGIPERFSGSSSGTTVTLTISGVQAEDEADYYCQSADSSGTYPVVFGGGTQLTVL
notes: human IgG1, anti-A27
EC50 [3]: 0.06 µg/mL | EC50 [4]: > 0.1 µg/mL

B7: VACV-56 (antibody, V domains shown)
VH: QVQLQQWGAGLLKPSETLSLTCAVYGGSFSGYYWSWIRQPPGKGLEWIGEINHSGSTNYNPSLKSRVTISVDTSKSQFSLKLSSVTAADTAVYYCARATQGSGTYKLFFYSYGMDVWGQGTTVTVSS
VL: not shown
notes: human IgG1, anti-D8
EC50 [6]: 0.01 µg/mL | PRNT Emax, VACV MV+C' [7]: 81% | PRNT IC50, VACV MV+C' [7]: 0.04 µg/mL

B8: VACV-282 (antibody, V domains shown)
VH: EVQLVESGGGLVKPGGSLRLSCAASGFTFSSYSMNWVRQAPGKGLEWVSSISSISSYIYYADSVKGRFTISRDNAKNSLYLQMNSLRAEDTAVYYCARDRPRSRPNSGSYFWYYYGMDVW
VL: SYELTQPPSVSVAPGQTARITCGGNNIGSKSVHWYQQKPGQAPVLVVYDDSDRPSGIPERFSGSNSGNTATLTISRVEAGDEADYYCQVWDSNSDHRVSA
notes: human IgG1, anti-B5
EC50 [1]: 0.155 µg/mL

B9: VACV-301 (antibody, V domains shown)
VH: EVQLLESGGGLVQPGGSLRLSCAASGFSFSSYAMSWVRQAPGKGLEWVSGIGNSGDRTFYADSAKGRFTIFRDNSNNRLYLQMNSLRAADTAVYYCAKWGRFESGAFWGQGVLVTVSS
VL: SYELTQSPSVSVSPGQTARITCSGDALPEQYAYWYQQKPGQAPVLVIYKDSERPSGIPERFSGSGSGTTVTLTITGVQAEDEADYYCQSADNSGTYEVFGTGTKVTVL
notes: human IgG3, anti-A27
EC50 [3]: 0.03 µg/mL | EC50 [4]: > 21 µg/mL | PRNT Emax, VACV MV [5]: 61% | PRNT Emax, VACV MV+C' [5]: 77% | PRNT IC50, VACV MV [5]: 0.5 µg/mL | PRNT IC50, VACV MV+C' [5]: 0.1 µg/mL

B10: VACV-230 (antibody, V domains shown)
VH: QVQLVQSGAEVKKPGASVKVSCKVSGYTLTELSMHWVRQAPGKGLEWLGGFDPEDGETIYAQKFQGRVTMTEDTSTDTAYMELSSLRSEDTAVYYCARESWLRGFDYWGQGTLVTVS
VL: not shown
notes: human IgG1, anti-D8
EC50 [6]: 0.6 µg/mL | PRNT Emax, VACV MV+C' [7]: 77% | PRNT IC50, VACV MV+C' [7]: 0.1 µg/mL

B11: MPXV-39 (antibody, V domains shown)
VH: QVQLQQWGAGLLKPSETLSLTCAIYGGSLSGQYWSWIRQPPGRGLEWIGEIHHKGRTNYNPSLKSRVTISIDTSQRQFSLRLTSVSAADTAVYYCASGNYRLGQGTLVTF
VL: DVVLTQSPLTLPVTLGQPASISCRSSQSLVYSDGDTYLNWFQQRPGQAPRRLIYKVSKRDFGVPDRFSGSGSGTDFTLRISRVEAEDVGVYYCMQGTHWPRTFGQGTQVDIK
notes: human IgG3, anti-A33
EC50 [8]: 0.07 µg/mL

B12: MPXV-96 (antibody, V domains shown)
VH: QVQLQQWGAGLLISSETLSLTCGVYGGSFSGYYWTWIRQPPGKGLEWIGEINYVGSTNYNPSLKSRVTMSVDTSKNHFSLSLSSVTAADTAVYYCARGLRGNSVCFDWGPGTLV
VL: ELVMTQSPATLSVSPGERASLSCRASQSVSSNLAWYQQKPGQAPRLLIYGASTRATGLPARFSGSGSGTEFTLTISSLQSEDFAIYYCQQYNNWPRTFGQGTKVDI
notes: human IgG1, anti-D8
EC50 [6]: 0.001 µg/mL

B13: VACV-1 (antibody, V domains shown)
VH: EVQLVESGGGLVQPGESLKISCAASGFTFSSFSMNWVRQAPGKGLEWVSYISSSSSTIYYADSVKGRFTISRDNAKNSLYLQMNSLRDEDTAVYYCARRSVGCSGGNCYAYYYGMDVWGQGTTVTVS
VL: not shown
notes: human IgG1, anti-B5
EC50 [1]: 0.02 µg/mL

B14: VACV-300 (antibody, V domains shown)
V domain 1: QVQLVQSGAEVKKPGSSVKVSCKASGGTFSSYAISWVRQAPGQGLEWMGGIIPIFGTANYAQKFQGRVTITADESTGTAYMELTSLRSEDTAIYYCARASEQWLASINWFDPWGQGTLVTVSS
V domain 2: QSALTQPASVSGSPGQSITISCTGTSSDVGSYNLVSWYQQHPGKAPKLMIYEVSKRPSGVSNRFSASKSGNTASLTISGLQAEDEADYYCCSYAGSSTLVFGGGTQVTVL
notes: human IgG1, anti-A27
EC50 [3]: 0.22 µg/mL | EC50 [4]: > 0.37 µg/mL

B15: MPXV-61 (antibody, V domains shown)
V domain 1: QVQLVQSGAEVKKPGSSVKVSCKASGETFSRYAFSWVRLAPGQGLEWLGRIIPFIDIPNYAQKFQGRVTITADKSTSTAYMELSSLRSEDTAVYYCASSLPSTYYFGSGNYPWGNWLDPWGQGTLVTVSS
V domain 2: QSVVTQPPSVSAAPGQNVTISCSGSSSNIGNNYVSWYHQLPGTAPKLLIYDNDKRPSGIPDRFSGSKSGTSATLGITGLQTGDEADYYCGTWDSSLSEVVFGGGTQVTVL
notes: human IgG1, anti-D8
EC50 [6]: 0.007 µg/mL

B16: VACV-8 (antibody, V domains shown)
VH: QVQLQQWGAGLLKPSETLSLTCAGYGGSFSGYFWSWIRQPPGKGLEWIGEINHSGSTDYNPSLKSRVTISLDTSKTQFSLKLSSVTAADTAVYYCARVMTGITNYYYYYGMDVWGQGTTVTF
VL: DIQLTQSPSFLSASVGDRVTITCRASQDISSYLAWYQQKPGKAPKLLIYAASTLQSGVPSRFSGSESGTEFTLTISSLQPENFATYYCQHLNSYPRGYTFGQGTKVDIK
notes: human IgG1, anti-D8
EC50 [6]: 0.04 µg/mL | PRNT Emax, VACV MV+C' [7]: 74% | PRNT IC50, VACV MV+C' [7]: 0.3 µg/mL
